Test system: SARS-CoV-1, MERS-CoV and SARS-CoV-2 proteins in HEK293T cells
Parameters: species or system human

B1: M-Q8TCJ2 (protein, UniProt Q8TCJ2 2-826, looked up)
Dolichyl-diphosphooligosacchar …: AEPSAPESKHKSSLNSSPWSGLMALGNSRHGHHGPGAQCAHKAAGGAAPPKPAPAGLSGGLSQPAGWQSLLSFTILFLAWLAGFSSRLFAVIRFESIIHEFDPWFNYRSTHHLASHGFYEFLNWFDERAWYPLGRIVGGTVYPGLMITAGLIHWILNTLNITVHIRDVCVFLAPTFSGLTSISTFLLTRELWNQGAGLLAACFIAIVPGYISRSVAGSFDNEGIAIFALQFTYYLWVKSVKTGSVFWTMCCCLSYFYMVSAWGGYVFIINLIPLHVFVLLLMQRYSKRVYIAYSTFYIVGLILSMQIPFVGFQPIRTSEHMAAAGVFALLQAYAFLQYLRDRLTKQEFQTLFFLGVSLAAGAVFLSVIYLTYTGYIAPWSGRFYSLWDTGYAKIHIPIIASVSEHQPTTWVSFFFDLHILVCTFPAGLWFCIKNINDERVFVALYAISAVYFAGVMVRLMLTLTPVVCMLSAIAFSNVFEHYLGDDMKRENPPVEDSSDEDDKRNQGNLYDKAGKVRKHATEQEKTEEGLGPNIKSIVTMLMLMLLMMFAVHCTWVTSNAYSSPSVVLASYNHDGTRNILDDFREAYFWLRQNTDEHARVMSWWDYGYQIAGMANRTTLVDNNTWNNSHIALVGKAMSSNETAAYKIMRTLDVDYVLVIFGGVIGYSGDDINKFLWMVRIAEGEHPKDIRESDYFTPQGEFRVDKAGSPTLLNCLMYKMSYYRFGEMQLDFRTPPGFDRTRNAEIGNKDIKFKHLEEAFTSEHWLVRIYKVKAPDNRETLDHKPRVTNIFPKQKYLSKKTTKRKRGYIKNKLVFKKGKKISKKTV
In the case of B1, the MIST_MERS is reported as 0, the MIST_SARS1 is reported as 0.991 and the MIST_SARS2 is reported as 0.01779. It also gave a Saint_MERS of 0, a Saint_SARS1 of 1 and a Saint_SARS2 of 0.

B2: M-Q96AA3 (protein, UniProt Q96AA3 1-541, looked up)
Man(5)GlcNAc(2)-PP-dolichol …: MGSQEVLGHAARLASSGLLLQVLFRLITFVLNAFILRFLSKEIVGVVNVRLTLLYSTTLFLAREAFRRACLSGGTQRDWSQTLNLLWLTVPLGVFWSLFLGWIWLQLLEVPDPNVVPHYATGVVLFGLSAVVELLGEPFWVLAQAHMFVKLKVIAESLSVILKSVLTAFLVLWLPHWGLYIFSLAQLFYTTVLVLCYVIYFTKLLGSPESTKLQTLPVSRITDLLPNITRNGAFINWKEAKLTWSFFKQSFLKQILTEGERYVMTFLNVLNFGDQGVYDIVNNLGSLVARLIFQPIEESFYIFFAKVLERGKDATLQKQEDVAVAAAVLESLLKLALLAGLTITVFGFAYSQLALDIYGGTMLSSGSGPVLLRSYCLYVLLLAINGVTECFTFAAMSKEEVDRYNFVMLALSSSFLVLSYLLTRWCGSVGFILANCFNMGIRITQSLCFIHRYYRRSPHRPLAGLHLSPVLLGTFALSGGVTAVSEVFLCCEQGWPARLAHIAVGAFCLGATLGTAFLTETKLIHFLRTQLGVPRRTDKMT
modifications: interaction partner of viral M protein
B2 was tested, and the MIST_MERS was 0, the MIST_SARS1 was 0.809 and the MIST_SARS2 was 0.5513. The Saint_MERS was 0, the Saint_SARS1 was 0.95 and the Saint_SARS2 was 0.98.

B3: M-Q86UL3 (protein, UniProt Q86UL3 38-456, looked up)
Glycerol-3-phosphate …: VSFGIRKLYMKSLLKIFAWATLRMERGAKEKNHQLYKPYTNGIIAKDPTSLEEEIKEIRRSGSSKALDNTPEFELSDIFYFCRKGMETIMDDEVTKRFSAEELESWNLLSRTNYNFQYISLRLTVLWGLGVLIRYCFLLPLRIALAFTGISLLVVGTTVVGYLPNGRFKEFMSKHVHLMCYRICVRALTAIITYHDRENRPRNGGICVANHTSPIDVIILASDGYYAMVGQVHGGLMGVIQRAMVKACPHVWFERSEVKDRHLVAKRLTEHVQDKSKLPILIFPEGTCINNTSVMMFKKGSFEIGATVYPVAIKYDPQFGDAFWNSSKYGMVTYLLRMMTSWAIVCSVWYLPPMTREADEDAVQFANRVKSAIARQGGLVDLLWDGGLKREKVKDTFKEEQQKLYSKMIVGNHKDRSRS
modifications: interactor of M protein
Work on B3 yielded an MIST_MERS of 0.2998, an MIST_SARS1 of 0.8496 and an MIST_SARS2 of 0.485. The Saint_MERS was 0.31, the Saint_SARS1 was 1 and the Saint_SARS2 was 0.96.

B4: M-Q7RTS9 (protein, UniProt Q7RTS9 2-669, looked up)
Dymeclin: GSNSSRIGDLPKNEYLKKLSGTESISENDPFWNQLLSFSFPAPTSSSELKLLEEATISVCRSLVENNPRTGNLGALIKVFLSRTKELKLSAECQNHIFIWQTHNALFIICCLLKVFICQMSEEELQLHFTYEEKSPGNYSSDSEDLLEELLCCLMQLITDIPLLDITYEISVEAISTMVVFLSCQLFHKEVLRQSISHKYLMRGPCLPYTSKLVKTLLYNFIRQEKPPPPGAHVFPQQSDGGGLLYGLASGVATGLWTVFTLGGVGSKAAASPELSSPLANQSLLLLLVLANLTDASDAPNPYRQAIMSFKNTQDSSPFPSSIPHAFQINFNSLYTALCEQQTSDQATLLLYTLLHQNSNIRTYMLARTDMENLVLPILEILYHVEERNSHHVYMALIILLILTEDDGFNRSIHEVILKNITWYSERVLTEISLGSLLILVVIRTIQYNMTRTRDKYLHTNCLAALANMSAQFRSLHQYAAQRIISLFSLLSKKHNKVLEQATQSLRGSLSSNDVPLPDYAQDLNVIEEVIRMMLEIINSCLTNSLHHNPNLVYALLYKRDLFEQFRTHPSFQDIMQNIDLVISFFSSRLLQAGAELSVERVLEIIKQGVVALPKDRLKKFPELKFKYVEEEQPEEFFIPYVWSLVYNSAVGLYWNPQDIQLFTMDSD
modifications: interactor of viral M protein
B4 showed an MIST_MERS of 0, an MIST_SARS1 of 0.9893 and an MIST_SARS2 of 0. The Saint_MERS was 0, the Saint_SARS1 was 0.97 and the Saint_SARS2 was 0.

B5: M-Q8TBF5 (protein, UniProt Q8TBF5 22-258, looked up)
GPI …: LTRGPAAAFTAARSDAGIRAMCSEIILRQEVLKDGFHRDLLIKVKFGESIEDLHTCRLLIKQDIPAGLYVDPYELASLRERNITEAVMVSENFDIEAPNYLSKESEVLIYARRDSQCIDCFQAFLPVHCRYHRPHSEDGEASIVVNNPDLLMFCDQEFPILKCWAHSEVAAPCALENEDICQWNKMKYKSVYKNVILQVPVGLTVHTSLVCSVTLLITILCSTLILVAVFKYGHFSL
modifications: prey of SARS-CoV-2 M
B5 was tested, and the MIST_MERS was 0, the MIST_SARS1 was 0.9901 and the MIST_SARS2 was 0.4273. It also gave a Saint_MERS of 0, a Saint_SARS1 of 0.99 and a Saint_SARS2 of 0.33.

B6: M-Q8NEW0 (protein, UniProt Q8NEW0 1-376, looked up)
Zinc transporter 7: MLPLSIKDDEYKPPKFNLFGKISGWFRSILSDKTSRNLFFFLCLNLSFAFVELLYGIWSNCLGLISDSFHMFFDSTAILAGLAASVISKWRDNDAFSYGYVRAEVLAGFVNGLFLIFTAFFIFSEGVERALAPPDVHHERLLLVSILGFVVNLIGIFVFKHGGHGHSHGSGHGHSHSLFNGALDQAHGHVDHCHSHEVKHGAAHSHDHAHGHGHFHSHDGPSLKETTGPSRQILQGVFLHILADTLGSIGVIASAIMMQNFGLMIADPICSILIAILIVVSVIPLLRESVGILMQRTPPLLENSLPQCYQRVQQLQGVYSLQEQHFWTLCSDVYVGTLKLIVAPDADARWILSQTHNIFTQAGVRQLYVQIDFAAM
modifications: interaction partner of viral M protein
In the case of B6, the MIST_MERS is reported as 0.5834, the MIST_SARS1 is reported as 0.6222 and the MIST_SARS2 is reported as 0.767. For the same molecule, the Saint_MERS was 0.64, the Saint_SARS1 was 0.97 and the Saint_SARS2 was 1.

B7: M-Q8WUD6 (protein, UniProt Q8WUD6 2-406, looked up)
Cholinephosphotransferase 1: AAGAGAGSAPRWLRALSEPLSAAQLRRLEEHRYSAAGVSLLEPPLQLYWTWLLQWIPLWMAPNSITLLGLAVNVVTTLVLISYCPTATEEAPYWTYLLCALGLFIYQSLDAIDGKQARRTNSCSPLGELFDHGCDSLSTVFMAVGASIAARLGTYPDWFFFCSFIGMFVFYCAHWQTYVSGMLRFGKVDVTEIQIALVIVFVLSAFGGATMWDYTIPILEIKLKILPVLGFLGGVIFSCSNYFHVILHGGVGKNGSTIAGTSVLSPGLHIGLIIILAIMIYKKSATDVFEKHPCLYILMFGCVFAKVSQKLVVAHMTKSELYLQDTVFLGPGLLFLDQYFNNFIDEYVVLWMAMVISSFDMVIYFSALCLQISRHLHLNIFKTACHQAPEQVQVLSSKSHQNNMD
B7 gave an MIST_MERS of 0, an MIST_SARS1 of 0.8979 and an MIST_SARS2 of 0.636. It also gave a Saint_MERS of 0, a Saint_SARS1 of 0.98 and a Saint_SARS2 of 0.65.

B8: M-Q8NDZ4 (protein, UniProt Q8NDZ4 36-430, looked up)
Divergent protein kinase …: LASWQRNELTDRRFLQLNKCPACFGTSWCRRFLNGQVVFEAWGRLRLLDFLNVKNVYFAQYGEPREGGRRRVVLKRLGSQRELAQLDQSICKRATGRPRCDLLQAMPRTEFARLNGDVRLLTPEAVEGWSDLVHCPSQRLLDRLVRRYAETKDSGSFLLRNLKDSERMQLLLTLAFNPEPLVLQSFPSDEGWPFAKYLGACGRMVAVNYVGEELWSYFNAPWEKRVDLAWQLMEIAEQLTNNDFEFALYLLDVSFDNFAVGPRDGKVIIVDAENVLVADKRLIRQNKPENWDVWYESKFDDCDKEACLSFSKEILCARATVDHNYYAVCQNLLSRHATWRGTSGGLLHDPPSEIAKDGRLEALLDECANPKKRYGRFQAAKELREYLAQLSNNVR
Work on B8 yielded an MIST_MERS of 0.7477, an MIST_SARS1 of 0 and an MIST_SARS2 of 0. The Saint_MERS was 1, the Saint_SARS1 was 0 and the Saint_SARS2 was 0.

B9: M-Q6PJG6 (protein, UniProt Q6PJG6 1-821, looked up)
Integrator complex assembly …: MDPECAQLLPALCAVLVDPRQPVADDTCLEKLLDWFKTVTEGESSVVLLQEHPCLVELLSHVLKVQDLSSGVLSFSLRLAGTFAAQENCFQYLQQGELLPGLFGEPGPLGRATWAVPTVRSGWIQGLRSLAQHPSALRFLADHGAVDTIFSLQGDSSLFVASAASQLLVHVLALSMRGGAEGQPCLPGGDWPACAQKIMDHVEESLCSAATPKVTQALNVLTTTFGRCQSPWTEALWVRLSPRVACLLERDPIPAAHSFVDLLLCVARSPVFSSSDGSLWETVARALSCLGPTHMGPLALGILKLEHCPQALRTQAFQVLLQPLACVLKATVQAPGPPGLLDGTADDATTVDTLLASKSSCAGLLCRTLAHLEELQPLPQRPSPWPQASLLGATVTVLRLCDGSAAPASSVGGHLCGTLAGCVRVQRAALDFLGTLSQGTGPQELVTQALAVLLECLESPGSSPTVLKKAFQATLRWLLSSPKTPGCSDLGPLIPQFLRELFPVLQKRLCHPCWEVRDSALEFLTQLSRHWGGQADFRCALLASEVPQLALQLLQDPESYVRASAVTAMGQLSSQGLHAPTSPEHAEARQSLFLELLHILSVDSEGFPRRAVMQVFTEWLRDGHADAAQDTEQFVATVLQAASRDLDWEVRAQGLELALVFLGQTLGPPRTHCPYAVALPEVAPAQPLTEALRALCHVGLFDFAFCALFDCDRPVAQKSCDLLLFLRDKIASYSSLREARGSPNTASAEATLPRWRAGEQAQPPGDQEPEAVLAMLRSLDLEGLRSTLAESSDHVEKSPQSLLQDMLATGGFLQGDEADCY
Work on B9 yielded an MIST_MERS of 0, an MIST_SARS1 of 0.9911 and an MIST_SARS2 of 0. It also gave a Saint_MERS of 0, a Saint_SARS1 of 1 and a Saint_SARS2 of 0.
